Assay results as given in the supplement of paper PMC9112550, “Optimization of the antimicrobial peptide Bac7 by deep mutational scanning” (BMC Biology, 2022).

Each sequence was assayed on Escherichia coli TOP10 (assay: shrunken log2 fold change of peptide-encoding DNA abundance (4.5 h post-induction vs induction); higher = less antimicrobial activity (less host growth inhibition)). Details: time post-induction: 4.5 h; library: site-saturation at positions 5, 18, 19, 20.
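Further: peptides expressed intracellularly from a pBAD plasmid library in pooled LB shake-flask culture, induced with 0.3% L-arabinose, DNA abundance read by NGS, three biological replicates, DESeq2 with apeglm shrinkage.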

Sequence | shrunken log2 fold change
RRIRMRPPRLPRPRPRPHCLPRP | -0.0601
RRIRHRPPRLPRPRPRPGNFPRP | -0.537
RRIRERPPRLPRPRPRPYWNPRP | -0.858
RRIRKRPPRLPRPRPRPHWVPRP | -0.0562
RRIRLRPPRLPRPRPRPYYGPRP | -0.838
RRIRERPPRLPRPRPRPYLDPRP | -0.149
RRIRTRPPRLPRPRPRPVVFPRP | -0.184
RRIRLRPPRLPRPRPRPWGKPRP | -0.0201
RRIRERPPRLPRPRPRPHQIPRP | -0.372
RRIRARPPRLPRPRPRPCQNPRP | 0.105
RRIRTRPPRLPRPRPRPVQIPRP | -0.0381
RRIRERPPRLPRPRPRPGKQPRP | -0.0388
RRIRERPPRLPRPRPRPRRCPRP | 0.0702
RRIRQRPPRLPRPRPRPPMTPRP | -0.268
RRIRARPPRLPRPRPRPICCPRP | 0.316
RRIRPRPPRLPRPRPRPQTAPRP | 0.111
RRIRARPPRLPRPRPRPKYIPRP | -0.536
RRIRWRPPRLPRPRPRPPFLPRP | 0.26
RRIRKRPPRLPRPRPRPRMVPRP | 0.168
RRIRSRPPRLPRPRPRPRGNPRP | 0.0829
RRIRFRPPRLPRPRPRPENQPRP | -0.00277
RRIRKRPPRLPRPRPRPYPNPRP | 0.0382
RRIRVRPPRLPRPRPRPQLCPRP | -0.143
RRIRHRPPRLPRPRPRPTLRPRP | -0.0301
RRIRGRPPRLPRPRPRPLDEPRP | 1.24

Sequence | shrunken log2 fold change
RRIRQRPPRLPRPRPRPSMEPRP | 0.0775
RRIRIRPPRLPRPRPRPDDTPRP | -0.131
RRIRLRPPRLPRPRPRPHDVPRP | 0.0205
RRIRYRPPRLPRPRPRPFPCPRP | -0.467
RRIRERPPRLPRPRPRPNMSPRP | -0.179
RRIRYRPPRLPRPRPRPTLYPRP | -0.828
RRIRARPPRLPRPRPRPLVSPRP | 0.653
RRIRERPPRLPRPRPRPCFVPRP | -0.151
RRIRARPPRLPRPRPRPCCRPRP | 0.406
RRIRPRPPRLPRPRPRPGTMPRP | -0.133
RRIRFRPPRLPRPRPRPSMCPRP | -0.714
RRIRRRPPRLPRPRPRPGKGPRP | 0.609
RRIRHRPPRLPRPRPRPEAVPRP | -0.00144
RRIRARPPRLPRPRPRPHAIPRP | 0.0503
RRIRPRPPRLPRPRPRPLQCPRP | -1.25
RRIRVRPPRLPRPRPRPKAPPRP | 0.592
RRIRNRPPRLPRPRPRPQCWPRP | 0.057
RRIRFRPPRLPRPRPRPYLVPRP | -0.423
RRIRHRPPRLPRPRPRPSVMPRP | -0.19
RRIRRRPPRLPRPRPRPMFYPRP | -0.229
RRIRKRPPRLPRPRPRPHCCPRP | -0.0219
RRIRHRPPRLPRPRPRPTTVPRP | -0.0474
RRIRYRPPRLPRPRPRPLPSPRP | -0.14
RRIRCRPPRLPRPRPRPQEFPRP | -0.366
RRIRGRPPRLPRPRPRPLHLPRP | 0.0533

Sequence | shrunken log2 fold change
RRIRDRPPRLPRPRPRPCDAPRP | -0.0239
RRIRRRPPRLPRPRPRPEEAPRP | 1.51
RRIRFRPPRLPRPRPRPIYNPRP | -0.624
RRIRNRPPRLPRPRPRPRYCPRP | -0.0932
RRIRVRPPRLPRPRPRPWRHPRP | 0.288
RRIRERPPRLPRPRPRPDIQPRP | 3.69
RRIRVRPPRLPRPRPRPKQDPRP | -0.266
RRIRIRPPRLPRPRPRPHRIPRP | 0.0122
RRIRWRPPRLPRPRPRPWEAPRP | 0.396
RRIRRRPPRLPRPRPRPCKVPRP | -0.0103
RRIRGRPPRLPRPRPRPCTFPRP | 0.0341
RRIRFRPPRLPRPRPRPPMEPRP | -0.0751
RRIRNRPPRLPRPRPRPWTPPRP | -0.0926
RRIRWRPPRLPRPRPRPCGEPRP | 0.216
RRIRCRPPRLPRPRPRPYGYPRP | -0.0837
RRIRARPPRLPRPRPRPNQLPRP | -0.0527
RRIRPRPPRLPRPRPRPSMTPRP | 0.496
RRIRCRPPRLPRPRPRPLTVPRP | -0.483
RRIRMRPPRLPRPRPRPKHNPRP | 0.131
RRIRLRPPRLPRPRPRPSCDPRP | -0.417
RRIRCRPPRLPRPRPRPYSMPRP | -0.905
RRIRRRPPRLPRPRPRPDYPPRP | 0.0596
RRIRRRPPRLPRPRPRPKVSPRP | 0.267
RRIRGRPPRLPRPRPRPFFQPRP | 0.103
RRIRPRPPRLPRPRPRPWQEPRP | 0.00579

Sequence | shrunken log2 fold change
RRIRLRPPRLPRPRPRPGWWPRP | 0.155
RRIRCRPPRLPRPRPRPPWEPRP | -0.0369
RRIRSRPPRLPRPRPRPCQQPRP | -0.147
RRIRGRPPRLPRPRPRPSQYPRP | -0.034
RRIRWRPPRLPRPRPRPVGLPRP | 0.568
RRIRMRPPRLPRPRPRPMLVPRP | 0.2
RRIRQRPPRLPRPRPRPASRPRP | -0.124
RRIRKRPPRLPRPRPRPWGQPRP | 0.0379
RRIRWRPPRLPRPRPRPSATPRP | 0.985
RRIRDRPPRLPRPRPRPIDFPRP | 0.132
RRIRRRPPRLPRPRPRPHCYPRP | 0.0243
RRIRRRPPRLPRPRPRPMPNPRP | 0.129
RRIRTRPPRLPRPRPRPKFDPRP | -0.0528
RRIRPRPPRLPRPRPRPQIMPRP | -0.265
RRIRPRPPRLPRPRPRPHRAPRP | 0.402
RRIRIRPPRLPRPRPRPAMKPRP | -0.0563
RRIRARPPRLPRPRPRPGPSPRP | 0.6
RRIRWRPPRLPRPRPRPMMNPRP | -0.238
RRIRIRPPRLPRPRPRPVKAPRP | -0.0571
RRIRSRPPRLPRPRPRPQESPRP | -0.0242
RRIRCRPPRLPRPRPRPWKTPRP | -0.152
RRIRGRPPRLPRPRPRPYEEPRP | 0.106
RRIRYRPPRLPRPRPRPRMAPRP | 0.0395
RRIRYRPPRLPRPRPRPHMLPRP | -1.09
RRIRARPPRLPRPRPRPWRQPRP | 0.0426

Sequence | shrunken log2 fold change
RRIRWRPPRLPRPRPRPVKVPRP | -0.0471
RRIRGRPPRLPRPRPRPNHSPRP | 0.195
RRIRPRPPRLPRPRPRPQHWPRP | 0.265
RRIRTRPPRLPRPRPRPRQNPRP | 0.067
RRIRTRPPRLPRPRPRPCDLPRP | 0.0183
RRIRDRPPRLPRPRPRPVIDPRP | 0.35
RRIRWRPPRLPRPRPRPYFCPRP | -0.298
RRIRWRPPRLPRPRPRPPLKPRP | 0.415
RRIRRRPPRLPRPRPRPMHSPRP | 0.36
RRIRDRPPRLPRPRPRPQMCPRP | -0.183
RRIRFRPPRLPRPRPRPSKYPRP | -0.868
RRIRKRPPRLPRPRPRPNHDPRP | -0.0524
RRIRARPPRLPRPRPRPMKTPRP | 0.0191
RRIRNRPPRLPRPRPRPGFIPRP | 0.0474
RRIRQRPPRLPRPRPRPWVVPRP | 0.0305
RRIRLRPPRLPRPRPRPNWPPRP | 0.379
RRIRRRPPRLPRPRPRPSFNPRP | -0.192
RRIRPRPPRLPRPRPRPFGMPRP | -0.749
RRIRQRPPRLPRPRPRPWVTPRP | -0.219
RRIRIRPPRLPRPRPRPGPNPRP | -0.113
RRIRSRPPRLPRPRPRPLINPRP | -0.0856
RRIRSRPPRLPRPRPRPCGDPRP | -0.0559
RRIRYRPPRLPRPRPRPTCRPRP | -0.157
RRIRTRPPRLPRPRPRPAGYPRP | 0.138
RRIRRRPPRLPRPRPRPPCHPRP | 0.761

Sequence | shrunken log2 fold change
RRIRNRPPRLPRPRPRPSYSPRP | -0.555
RRIRPRPPRLPRPRPRPDWDPRP | 0.00947
RRIRHRPPRLPRPRPRPYYEPRP | 0.0317
RRIRMRPPRLPRPRPRPQVMPRP | 0.0337
RRIRQRPPRLPRPRPRPQSCPRP | 0.00408
RRIRPRPPRLPRPRPRPWICPRP | -0.182
RRIRQRPPRLPRPRPRPDRKPRP | -0.085
RRIRRRPPRLPRPRPRPAGTPRP | -0.0331
RRIRHRPPRLPRPRPRPFNVPRP | 1.22
RRIRRRPPRLPRPRPRPPPAPRP | 1.28
RRIRSRPPRLPRPRPRPQTVPRP | -0.26
RRIRTRPPRLPRPRPRPYHHPRP | -0.59
RRIRSRPPRLPRPRPRPTIDPRP | -0.00141
RRIRMRPPRLPRPRPRPNTCPRP | -0.145
RRIRRRPPRLPRPRPRPMAYPRP | -0.193
RRIRMRPPRLPRPRPRPYAGPRP | -0.0412
RRIRHRPPRLPRPRPRPQDRPRP | -0.111
RRIRKRPPRLPRPRPRPCSVPRP | 0.0108
RRIRGRPPRLPRPRPRPIIQPRP | 0.203
RRIRVRPPRLPRPRPRPAVQPRP | -0.121
RRIRGRPPRLPRPRPRPYPGPRP | -0.0165
RRIRQRPPRLPRPRPRPYMLPRP | -0.168
RRIRCRPPRLPRPRPRPVGGPRP | 0.273
RRIRLRPPRLPRPRPRPPCQPRP | 0.062
RRIRYRPPRLPRPRPRPLYFPRP | -1.15
